Target: alpha thrombin (Homo sapiens, UniProt P00734;P00734 P00734:328-363,P00734:364-622)
Test: MST; 20 mM HEPES pH 7.4, 150 mM NaCl, 2 mM CaCl2, 0.05% Tween; 10 nM thrombin

## GGTTGGTGTGGTTGG (structured_DNA) [HD1]
  Kd: 5.4 nM

Source: patent US20250049935, “BOTTLEBRUSH CONJUGATES FOR USE AS OLIGONUCLEOTIDE ENHANCERS” (Northeastern University, published 2025)
